Source: the supplement of paper PMC10567573
± gives the standard deviation.

Experiment: protein stability index of a GFP-peptide fusion (GPS, HEK-293T) (PSI 1-6); higher = more stable
Settings: c terminus: a fixed tail appended
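Further: 24-mer peptide tiles fused after GFP, lentivirally expressed, FACS-sorted into six equal bins by GFP/DsRed ratio, decoded by Illumina sequencing, PSI is the read-weighted mean bin number.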

| Sequence | protein stability index (treatment: DMSO) | protein stability index (treatment: MLN4924 1 uM, 8 h) |
| --- | --- | --- |
| LNLAMVYRYCCKLNKKLKSYSLSR [CDC14A] | 3.32 ± 0.69 | 3.04 ± 0.49 |
| GTPGYLSPEVLRKDPYGKPVDLWA [CAMK2A] | 3.29 ± 0.39 | 3.16 ± 0.29 |
| FGVAGRSCQEVLRKGCLRFQLPER [DFFB] | 2.33 ± 0.24 | 2.25 ± 0.12 |
| ALHPERAMDNHSDSEEELAAFCPQ [RETREG3] | 5.42 ± 0.12 | 5.37 ± 0.24 |
| YLTSQLPPLREIILGPSSAYTQTQ [NFE2L1] | 2.38 ± 0.3 | 2.52 ± 0.1 |
| NVPNPRIKLIDFGIAHKIEAGNEF [DAPK3] | 3.2 ± 0.087 | 3.1 ± 0.35 |
| FCADNPSELPPPMERTGGIGDSRP [DVL3] | 4.45 ± 0.32 | 4.62 ± 0.32 |
| YREHKSLTGTARYMSINTHLGKEQ [CSNK1G1] | 3.47 ± 0.34 | 3.27 ± 0.49 |
| FSPSQFLNFWNKQDTLELESPSLT [MYBL2] | 2.47 ± 0.55 | 3.06 ± 0.39 |
| TNGSFSPSGNNGSVNWRTGSFHGP [DLC1] | 3.09 ± 0.3 | 3.11 ± 0.23 |
| TSLQGLTGTPLVAGSPIRHENAVQ [ISL2] | 4.31 ± 0.33 | 4.36 ± 0.16 |
| DWVPVESLLRPLNSLAALDLSGIQ [ZER1] | 2.42 ± 0.61 | 2.41 ± 0.49 |
| LYHNVEGFTDRREARKYASNLLKA [DVL3] | 3.39 ± 0.071 | 3.49 ± 0.22 |
| KVASSDLVNMGISVVSYTLKDIHD [FLOT1] | 2.34 ± 0.17 | 2.37 ± 0.29 |
| TGEAARPHKGLNLHPLLSGRLGRW [PCDHGC5] | 2.77 ± 0.17 | 2.9 ± 0.23 |
| GATWRTSGLLEELNAEAGHLDPGF [C18orf25] | 3.98 ± 0.43 | 3.75 ± 0.52 |
| SFTLEEEEEGGEEEEEAAMYEEEM [FAM50A] | 5.47 ± 0.43 | 5.36 ± 0.2 |
| DVALALAALDGGRSLEELTRLAFE [LPCAT4] | 2.06 ± 0.68 | 2.12 ± 0.19 |
| DLSRLVNCLTGEGEDTRLSASEMK [CIB1] | 3.5 ± 0.38 | 3.86 ± 0.28 |
| ENQSSQAELKEAVEEPSSKDVMEK [CHGA] | 5.6 ± 0.12 | 5.72 ± 0.19 |
| RALSEYLAVFARCLAGCEGAHEQV [P3H4] | 2.62 ± 0.86 | 2.89 ± 0.91 |
| AAVFKETFKSLSHIDPDVLYPSLN [ALG2] | 2.72 ± 0.17 | 2.71 ± 0.22 |

| Sequence | protein stability index (treatment: DMSO) | protein stability index (treatment: MLN4924 1 uM, 8 h) |
| --- | --- | --- |
| TIEDEDTKVRKQEIIKVTEQLIEA [CAMK2A] | 5.27 ± 0.28 | 5.02 ± 0.25 |
| PGDMKTKMELLILETQAQVCQALA [CPOX] | 2.31 ± 0.26 | 2.37 ± 0.34 |
| SKSLMTSVPMNGTSIQWKNHDQNN [EDNRA] | 4.25 ± 0.045 | 4.41 ± 0.18 |
| AVWLIFFMLGLGTLLPWNFFMTAT [SLC29A1] | 3.09 ± 0.66 | 2.6 ± 0.12 |
| NRFEVTLEKSNKNFSKKIQQIHVV [VPS39] | 2.36 ± 0.4 | 2.42 ± 0.22 |
| CIDIVIRHVAPIPSHYDVQDRFRI [MOSPD3] | 2.77 ± 0.61 | 2.93 ± 0.55 |
| ASAQPLPAPEAAHTTGPTGSAPNS [TFE3] | 5.35 ± 0.18 | 5.46 ± 0.15 |
| LSFSGSDVQNKLKESAQCVGDEFL [SNX8] | 4.48 ± 0.2 | 4.49 ± 0.21 |
| TYPAHQNRVSAIIFSLATEWVIST [WDFY1] | 3.57 ± 0.89 | 2.92 ± 1.1 |
| QGNKKEHVIHIIDFGLAKEYIDPE [CSNK1G1] | 2.5 ± 0.16 | 2.81 ± 0.24 |
| QLLLGRLFRWPDLQHAVELKPLCG [SMAD6] | 2.12 ± 0.19 | 2.36 ± 0.17 |
| EKPPRPEAKSAQPADGWKGERPRS [GCH1] | 5.2 ± 0.2 | 5.21 ± 0.11 |
| TSRNLIGGADIIVIKYNVNDKFSF [RHOBTB3] | 2.83 ± 1.2 | 2.68 ± 1.6 |
| KPVVNVSYRPAYDQGGPVEILPFL [DUSP5] | 2.62 ± 0.14 | 2.66 ± 0.39 |
| EKQSRCVNIEWHRFRFGQDQLLLA [WSB1] | 2.14 ± 0.24 | 2.6 ± 0.42 |
| VSAQYLSEIEMAKAQRDYELKKAA [FLOT1] | 4.34 ± 0.22 | 4.54 ± 0.14 |
| SNFYTVAVTSLSSQIQYMNTVVST [TMEM106C] | 3.13 ± 0.59 | 3.11 ± 0.49 |
| QVGTMALWASQREKEVLRRERAVE [ZBED2] | 4.11 ± 0.26 | 4.31 ± 0.18 |
| EIDRSVENTLLNSQMVSTDNSLSS [MIA2] | 4.18 ± 0.35 | 4.67 ± 0.23 |
| VDLVQKYLEKYYNLKNDGRQVEKR [MMP1] | 2.42 ± 0.25 | 2.68 ± 0.36 |
| KFTQDNLCRAQRERLASANLRVLV [TEKT4] | 2.15 ± 0.57 | 2.23 ± 0.26 |
| ERCLLNNSLWKKNKTICKERLQIL [NLN] | 2.31 ± 0.26 | 2.7 ± 0.49 |
